Source: US20100216969A1 (BIONANOPHOTNICS A S, published 2010)
Bridge positions count the residues as written; N and C are the ends. Ends that are not written are not given here.

Biological target: T1, Lysozyme (Sigma L-7651) (UniProt P00698 19-147)
T1 construct: Used as 2 uM solution in 25 mM Tris pH 7.0; also called model protein
Experiment: TIRF flow chamber, tryptophan fluorescence (excitation 295 nm, emission 350 nm); lysozyme loaded over the peptide-coated quartz slide with the light off, then Tween20/PBS and buffer rinses
Source text: A TIRF system (BioElectroSpec, Inc., Harrisburg, Pa.) coupled with a fluorescence spectrophotometer (PTI QM-2000 from Photon Technology Int., Lawrenceville, N.J.) with a 75W Xenon arc source was used. The PTI instrument excitation and emission slits were set at 6 nm. The flow chamber was comprised by a “sandwich” consisting of a TIRF quartz prism, a TIRF quartz slide (with the sample surface), a 10 μm polyureathane gasket (comprising the chamber thickness), and a back block with holes to channel the solution through the flow chamber. In this setup, the excitation light travels through the prism and slide, hits the interface between slide and solution, leading to total internal reflection at the interface. The reflected beam generates an evanescent electromagnetic field in the centre of the TIRF slide—this area of the TIRF slide serves thus as the sensor surface. Only fluorophores that are present at the surface and in close proximity of the surface (within the evanescent field) are excited and fluoresce.

T1 sequence (P00698 19-147 limits assumed): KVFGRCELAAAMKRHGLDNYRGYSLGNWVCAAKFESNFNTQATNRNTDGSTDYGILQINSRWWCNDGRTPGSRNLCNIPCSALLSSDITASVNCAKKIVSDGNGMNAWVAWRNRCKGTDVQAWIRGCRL

- binding result: no binding (tested: 2 µM)
B1: synthetic disulphide-peptide KAMHAWGCGGGC-NH2 (SEQ ID NO 9) (peptide)
peptide: KAMHAWGCGGGC-NH2
modifications: disulfide 8-12; also: attached to aldehyde quartz surface via lysine amine and/or N-terminal amine (Schiff bond)
notes: Loaded at 10 uM onto an aldehyde-coated TIRF quartz slide; It stood in the assay as the surface coating; also called peptide linker
